Experimental data as given in the supplement of paper PMC12042874.
± gives the uncertainty stated by the source.

Assay: amyloid nucleation score (Sup35N fusion, yeast selection) (log enrichment); library NNK2; higher = more nucleation; inactive = no reads after selection
Summary of the method: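 The nucleation score equals the log enrichment of output over input reads from DiMSum, centred on the mode score of non-aggregating sequences. It was computed only for sequences with 100 or more input reads. The reads came from Illumina sequencing of plasmid inserts from psi-negative yeast expressing Sup35N fused to peptides of 20 random codons, induced with 100 μM copper sulfate for 24 hours and grown 7 days at 30°C without adenine and uracil.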

Point of comparison: SVGQMQLT, amyloid nucleation score 0.707 ± 0.35. Against it:
- SVFCCLYLYSG — higher, 9.035 ± 0.023
- YLPPNKNWFFVWVDFSSWVF — lower, -0.627 ± 0.61
- VLCGNSFMNCCSAFRCGSAV — higher, 8.923 ± 0.059
- TWRYRKMFASASFA — within error, 0.33 ± 0.16
- VSVDSVDAIFRK — within error, 0.489 ± 0.64
- RAWSIAWYAYPFLIREFECN — higher, 3.35 ± 0.079
- DETNGTGSRVRLVRRYER — within error, 0.946 ± 0.27
- YSFAMLGGQESRMSMCCGER — within error, 0.791 ± 0.32
- IKYFY — lower, -0.939 ± 0.49
- VNSDYMGIGL — within error, -0.272 ± 1.1
- TYFARCFDNWTVNWCVARVC — within error, 0.614 ± 0.57
- LCLVQLSDSCNQ — higher, 7.917 ± 0.055
- NLLNKTWFVSILIKHTCMYS — within error, 0.659 ± 0.56
- MGLYLWGFRTTSICGVLMDY — lower, -1.66 ± 0.76
- MCELGFHNSPFSGTFLLLMF — higher, 1.64 ± 0.12
- NWASKTFYGSYGSRYCQFGE — within error, 1.07 ± 0.59
- RRRIWATM — lower, -0.12 ± 0.31
- LHDLDWYSGILIQFDSDMRW — higher, 1.37 ± 0.15
- QEVSIKSFLRKYLLCYTMML — lower, -1.05 ± 0.44
- PIDKSVAVLDRREMSDQRIN — lower, -0.753 ± 0.34
- VIQNYL — lower, -0.624 ± 0.39
- YIGLSRATWM — lower, -1.75 ± 0.62
- YFISDEIVQSNIFSLIGWFC — higher, 8.556 ± 0.042
- YVSEQTHPMVIMYHFLRQHQ — lower, -0.181 ± 0.5
- RLFYRYWCL — lower, -0.797 ± 0.35
- CLFRLSSCVPTWLMQLTMWG — within error, 0.244 ± 0.25
- FIMVQRLSCLVVQISRAGAC — higher, 3.79 ± 0.12
- GALYLRDVLVICIMCGKIRY — higher, 2.73 ± 0.1
- ISYSVKPLYFVSRVRTVNLG — higher, 4.13 ± 0.078
- ISFTVYGPRMVVWLQGIMFG — lower, -0.86 ± 0.35
- FASRSCEFCEREY — higher, 3.2 ± 0.085
- SNLSRDESRVGSTGEQGDGG — lower, -0.38 ± 0.55
- IVILDRFSPCSRTNE — within error, 0.45 ± 0.8
- GIQGLRVWFAYMFPSVVLLC — lower, -0.987 ± 0.78
- CVNYYVYANHRRISYWW — within error, -0.337 ± 1.1
- ISRGRRYRTPVEILGGHMRH — within error, 0.917 ± 0.53
- YKVNWG — within error, 0.854 ± 0.47
- MSIWCNSIDRTFIDNLRPVF — lower, -1.43 ± 0.62
- HVVGVNLYRTLGRVFHLWDS — within error, -0.084 ± 0.76
- RHQCIIWDIISLPGIWLCRR — within error, 1.13 ± 0.23
- RVRNMS — within error, 0.1 ± 0.32
- YIGSVIIWRRKVSRFHLGEA — within error, 0.102 ± 0.79
- SIRSRLEFSFFL — higher, 3.45 ± 0.047
- VQILSHFSADCKDDSVDQES — lower, -1.06 ± 1.1
- RQGPALFSKINIATLKWLSM — within error, 0.511 ± 0.62
- FTLFVRHPGIVALERNFMVR — lower, -0.062 ± 0.35
- THIFVWNHFNLLRYTTKFLP — lower, -0.304 ± 0.4
- VVTGSMDSCGQPKVSSSSAS — within error, 0.294 ± 0.38
- FSDWIWTYCSQSFNGQE — lower, -0.817 ± 0.76
- HADNARRYQTTLMVGLRVVG — within error, 0.409 ± 0.49
- WHLVGRRSID — within error, -0.336 ± 0.76
- VSCCYRFSASNQIIVTPFSS — higher, 8.119 ± 0.026
- FRIYA — within error, 0.388 ± 0.29
- ACCSCIIVFINFTSLFFYRF — within error, -0.178 ± 1.1
- YITVSSESAWHYTDQATFDA — within error, -0.129 ± 1.1
- LLFPCFVTRSLVS — lower, -0.871 ± 0.32
- SDGSREFSCKLGGAGLGDGW — within error, 0.334 ± 0.5
- TFVGVLNQTNH — higher, 2.73 ± 0.13
- GWIVSLFVV — within error, 0.769 ± 0.46
- YTVWEEYHRAKSSGLT — within error, 1 ± 0.33
- GWVLTSCGANGWRK — lower, -0.371 ± 0.63
- SDCYDDKINVVQSKAVSITL — within error, 0.075 ± 0.76

With LRFASSNKLVGLD the amyloid nucleation score was “inactive”.
For EEVVVVWFIRDKDLALKLVV, the amyloid nucleation score was “inactive”.
In the case of FVSMNAGVYVGHRGHIMEFI, the amyloid nucleation score is reported as “inactive”.
For RRWQTTS, the amyloid nucleation score was “inactive”.
For TNEAIEMS, the amyloid nucleation score was “inactive”.
With TLNTNMRSLLRI the amyloid nucleation score was “inactive”.
For WNNYVLGYEVNRMCLLDRSV, the amyloid nucleation score was “inactive”.
With TSRRHYIVSVNLMK the amyloid nucleation score was “inactive”.
